According to article PMC10477243, “Molecular basis of RNA-binding and autoregulation by the cancer-associated splicing factor RBM39” (Nature Communications, 2023):
Where a chain is given by its changes, count along the chain named.

T1: RBM39 RRM2 (UniProt Q14498 250-328)
T1 sequence: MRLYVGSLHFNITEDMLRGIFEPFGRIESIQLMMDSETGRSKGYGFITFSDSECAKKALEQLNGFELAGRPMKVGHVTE

T2: SF3b155 ULM peptide KSRWDETP
T2 construct: ULM (UHM ligand motif) of SF3b155 (SF3B1)
T2 peptide: KSRWDETP

T3: RBM39 RRM2 F259A (UniProt Q14498 250-328, F259A)
T3 sequence: T1 sequence with F10A

B1: RBM39 RRM3 (domain or fragment)
chain: VQPLATQCFQLSNMFNPQTEEEVGWDTEIKDDVIEECNKHGGVIHIYVDKNSAQGNVYVKCPSIAAAIAAVNALHGRWFAGKMITAAYVPLPTYHNLFPDSMTATQLLVPSRR
modifications: Construct limits not printed (cited paper); 418-530 is the customary RRM3/UHM construct, covering the annotated RRM3 445-508 and the C-terminus
B2: RBM39 mRRM3 (domain or fragment)
chain: B1 chain with R77A, F79A
modifications: Construct limits not printed (cited paper); same conventional limits as wild-type RRM3

What was measured:
[1] = target: T1, RBM39 RRM2; experiment: NMR titration; ITC: RRM2/RRM12 in 10 mM Na phosphate pH 6.8, 50 mM NaCl, 2 mM DTT; RRM1 in the same at pH 5.5; 40 C (RRM12 with ssSL3 at 35 C); NMR 200 uM protein in the same; conditions: protein: recombinant; tags: His tag removed by thrombin
[2] = target: T2, SF3b155 ULM peptide KSRWDETP; experiment: ITC; PEAQ-ITC (Malvern); Buffer G (sodium phosphate 10 mM pH 7.2, NaCl 50 mM, TCEP 0.5 mM); protein 300 μM in the syringe, ligand (peptide) 30 μM in the cell; conditions: both partners purified
[3] = target: T1, RBM39 RRM2; experiment: ITC; n=1.18; ITC: RRM2/RRM12 in 10 mM Na phosphate pH 6.8, 50 mM NaCl, 2 mM DTT; RRM1 in the same at pH 5.5; 40 C (RRM12 with ssSL3 at 35 C); NMR 200 uM protein in the same; conditions: protein: recombinant; tags: His tag removed by thrombin
[4] = target: T3, RBM39 RRM2 F259A; experiment: ITC; n=1.27; ITC: RRM2/RRM12 in 10 mM Na phosphate pH 6.8, 50 mM NaCl, 2 mM DTT; RRM1 in the same at pH 5.5; 40 C (RRM12 with ssSL3 at 35 C); NMR 200 uM protein in the same; conditions: protein: recombinant

Row | Binder | binding result [1] | Kd [2] | other results
1 | CUCUUUG (ssRNA) [BS1] | binds |  | 
2 | CCUCCCA (ssRNA) [mutBS1] | no binding |  | 
3 | B1 |  | 19 ± 5 µM | dH [2]: -20 kcal/mol; stoichiometry N [2]: 0.65
4 | B2 |  | > 100 µM | 
5 | AGCUUUG (ssRNA) |  |  | Kd [3]: 9 ± 2 µM; Kd [4]: 41 ± 10 µM
